Biological target: Cys151 (UniProt position 151, SMGEKCVLHVM)
Test: chemical modification (fluorescence detection)
Conditions: 25 °C; 15 mM acetate/15 mM MES/30 mM Tris; Reduced (DTT-treated, desalted) free BTB domain, folded, no ligand

## Kelch-like ECH-associated protein 1 (KEAP1), BTB domain (Homo sapiens; S172A)
  pKa: 6.90 ± 0.05
